Drawing on patent US20090298083, this text covers activity (fold over background) and binding signal for 2 substances.

Data set [1] has as its system FLAG-Pax3-FOXO1 fusion. The data set can be described thus: cell_activity. The note with it: CAT assay, proliferating mouse primary myoblasts; no significant change during differentiation.
Data set [2] has as its target FLAG-Pax3 (UniProt P23760). In words: cell_activity. The note with it: CAT assay, proliferating mouse primary myoblasts; activity completely lost after 12 h differentiation.
The target in data set [3] is GST-Pax3 non-phosphorylated (UniProt P23760). In words: EMSA. The note with it: unphosphorylated; value inferred from nearly 10-fold increase on CKII phosphorylation.
Data set [4] has as its target GST-Pax3 phosphorylated at Ser205 by CKII (UniProt P23760). The data set can be described thus: EMSA. The note with it: Pax3 phosphorylated at Ser205 by CKII; reference for maximal binding; nearly 10-fold more binding than unphosphorylated.

Chain of GST-Pax3 phosphorylated at Ser205 by CKII (P23760 other isoform, or with tags, fused parts or gaps): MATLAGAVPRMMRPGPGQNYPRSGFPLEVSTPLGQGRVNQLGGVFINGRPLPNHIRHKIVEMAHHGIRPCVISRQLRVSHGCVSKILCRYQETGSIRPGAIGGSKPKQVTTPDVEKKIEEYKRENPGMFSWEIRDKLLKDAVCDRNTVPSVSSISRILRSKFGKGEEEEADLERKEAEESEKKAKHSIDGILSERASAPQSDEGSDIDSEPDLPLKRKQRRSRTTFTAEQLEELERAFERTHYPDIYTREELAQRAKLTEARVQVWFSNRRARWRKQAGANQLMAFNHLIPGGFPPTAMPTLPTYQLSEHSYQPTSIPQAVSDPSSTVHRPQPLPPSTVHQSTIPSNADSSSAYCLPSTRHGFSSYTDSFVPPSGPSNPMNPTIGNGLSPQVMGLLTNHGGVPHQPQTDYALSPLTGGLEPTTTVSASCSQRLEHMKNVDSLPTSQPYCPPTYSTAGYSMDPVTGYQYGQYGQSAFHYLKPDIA
Chain of FLAG-Pax3 (P23760 other isoform, or with tags, fused parts or gaps): as above
Chain of GST-Pax3 non-phosphorylated (P23760 other isoform, or with tags, fused parts or gaps): as above

Regarding “(PRS-9)TK-CAT reporter, six tandem repeats of Pax3 paired and homeodomain recognition sequence”, the activity (fold over background) in data set [1] amounted to 4; in data set [2], 2.
Regarding “oligonucleotide with paired- and homeodomain recognition sequences”, the binding signal in data set [3] was 10%; in data set [4], 100%.
